Laboratory results published in paper PMC8062265.

Target: Recombinant 1-158 a.a. domain of TMCC3 protein (human) (UniProt Q9ULS5)
Test: Luminex immunosandwich assay; cell-free; protein coupled onto Luminex beads, incubated with various concentrations of recombinant AKT, washed, detected with fluorescence labeled anti-AKT antibody (MFI, n = 4)

UniProt Q9ULS5, sequence (Q9ULS5 1-158): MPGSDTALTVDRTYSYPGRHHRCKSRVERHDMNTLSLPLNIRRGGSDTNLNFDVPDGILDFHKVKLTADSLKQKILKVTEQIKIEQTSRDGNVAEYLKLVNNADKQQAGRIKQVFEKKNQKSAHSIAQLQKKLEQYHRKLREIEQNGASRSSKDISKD

recombinant AKT (from UniProt P31749 1-480) (natural protein)
Kd: 1.67 nM
